Measurements: patent US20250136708A1 (YEDA RESEARCH AND DEVELOPMENT, published 2025)

Key:
[1] = molecular target: T1, human ATP6V1B2 on the surface of senescent human cells (IMR-90 lung fibroblasts, IPF lung fibroblasts, A549 … (human, UniProt P21281 1-511)); assay: FACS, non-permeabilized senescent IMR-90 cells, antibody at 10 ug/ml
T1 construct: whole, on cells; Endogenous protein on cells; also called surface ATP6V1B2; surface protein expressed in senescent human lung fibroblasts
Experimental: (§1) Control, growing IMR-90 or CCL-206 cells were seeded 24h prior to testing day. On testing day, the medium was aspirated, and cells were gently detached using warm TrypLE Express solution (Thermo Fisher Scientific) followed by the addition of cold FACS buffer (PBS/5% FBS). ATP6V1B2 antibodies were added to the tubes containing the cells and the tubes were incubated for 60-70 minutes at 4C and centrifuged. Antibodies 2G05, 2E11 and 4G06 were tested at 10 ug/ml. Commercial antibodies-LS-B13421 (LS Bio), ab200839 (Abcam), and SC-55544 (Santa Cruz) were used at 20 ug/ml. Two hundred fifty ul of secondary antibody (anti mouse Alexa 647, Jackson 115-605-146 diluted in FACS buffer 1:300) were added and the tubes were incubated for 40 minutes at 4 C. Following incubation, 600 ul FACS buffer supplemented with DAPI (diluted 1:20,000) were added to each tube and the tubes were centrifuged. Cell pellets were resuspended in 200 ul FACS buffer. The samples were analyzed using GUAVA Flow Cytometry analyzer. Data was analyzed using the FCSalyzer 0.9.18-alpha software. Duplicates and dead cells (DAPI positive cells) were excluded.

[2] = molecular target: T2, mouse ATP6V1B2 on the surface of senescent mouse lung fibroblasts (CCL-206) (mouse, UniProt P62814 1-511); assay: FACS, non-permeabilized senescent CCL-206 cells, antibody at 10 ug/ml
T2 construct: whole, on cells; Endogenous protein on mouse cells
Experimental: Surface binding was examined in non-permeabilized cells using FACS. FIG. 4A: antibody 2G05.
as §1

T2 sequence (P62814 whole entry): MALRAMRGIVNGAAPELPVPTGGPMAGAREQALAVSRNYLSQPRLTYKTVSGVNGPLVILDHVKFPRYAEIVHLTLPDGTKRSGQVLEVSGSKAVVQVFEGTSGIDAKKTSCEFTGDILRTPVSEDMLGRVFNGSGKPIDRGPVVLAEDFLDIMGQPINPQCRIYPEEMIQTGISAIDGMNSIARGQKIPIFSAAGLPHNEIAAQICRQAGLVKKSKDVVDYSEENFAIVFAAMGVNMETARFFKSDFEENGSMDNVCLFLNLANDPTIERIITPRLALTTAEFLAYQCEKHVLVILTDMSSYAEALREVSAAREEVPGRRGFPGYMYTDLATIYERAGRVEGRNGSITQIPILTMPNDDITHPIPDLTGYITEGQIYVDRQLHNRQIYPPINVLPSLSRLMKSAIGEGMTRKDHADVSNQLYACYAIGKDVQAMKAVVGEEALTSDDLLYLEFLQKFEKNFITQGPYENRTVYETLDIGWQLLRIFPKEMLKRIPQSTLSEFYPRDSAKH
T1 sequence (P21281 whole entry): as the sequence (P62814 whole entry) above, with M25A, A26V, K460R, T464A, Y474F counted along it

B1: anti-ATP6V1B2 antibody 2E11 (antibody, V domains shown)
VH: EVQLQQSGAELVKPGASAKMSCRAPGYTFTSYWITWVKQRPGQGLEWIGDIYPGSGSTNYNEKFKTKATLTVDTSSSTAYMQLSSLTSEDSAVYYCAELGTFDYWGQGTTLTVST
VL: DVVVTQTPLSLPVSLGDQASISCRSSQSLVHSNGNTYLHWYLQKPGQSPKLLIYKVSNRFSGVPDRFSGSGSGTDFTLKISRVEAEDLGVYFCSQSTHVPYTFGGGTKLEIK
notes: detection was with an anti-mouse secondary antibody
binding result [1]: binds
binding result [2]: binds
